From patent US20080008703A1 (YUHAN, published 2008)

Legend:
[1] = target: T1, recombinant human tumor necrosis factor-α (Biosource, USA) (human, UniProt P01375 77-233); assay: cell-based or functional assay
[2] = target: T1, recombinant human tumor necrosis …; assay: SPR (Biacore2000), hTNF-α immobilized on CM5 chip, antibody 25-400 nM as analyte
Protocol: (§1) Then, association and dissociation constants of the reactions were measured by Biacore2000 (Biacore, Sweden).

[3] = target: T1, recombinant human tumor necrosis …; assay: competitive ELISA (Friguet method), antibody pre-incubated with soluble hTNF-α, plate coated with hTNF-α
Protocol: For antibody quantification, 100 ng of goat anti-human immunoglobulin G.A.M (Zymed Laboratories Inc., USA) was distributed into each well of a microplate (Dynatech Laboratories Inc., USA) and the well plate was kept at 4° C. overnight to coat it with the immunoglobulin. At this time, mouse monoclonal antibody TSK114 was used as a control.
Each of the reactants was added to the well plate coated with 0.4 μg of the antigen and the well plate was kept at 37° C. for about 1.5 hrs. A goat anti-human polyclonal antibody (BioRad, USA) conjugated with horseradish peroxidase was diluted at a ratio of 1:1000 and 100 μl of the diluted antibody solution was added to each well. The well plate was kept at 37° C. for 1 hr. After the reaction was completed, the optical density of each well was measured using a horseradish peroxidase substrate kit (BioRad, USA).
Concentrations of the antibody bound to the antigen and the unbound antibody were calculated from the measured optical density, and antigen-binding affinity of the humanized antibodies were determined therefrom (Friguet B. et al., J. Immunol. Meth., 77: 305-319, 1985).

[4] = target: T1, recombinant human tumor necrosis …; assay: SPR (Biacore2000), hTNF-α immobilized
Protocol: as §1

T1 sequence (P01375 77-233 limits assumed): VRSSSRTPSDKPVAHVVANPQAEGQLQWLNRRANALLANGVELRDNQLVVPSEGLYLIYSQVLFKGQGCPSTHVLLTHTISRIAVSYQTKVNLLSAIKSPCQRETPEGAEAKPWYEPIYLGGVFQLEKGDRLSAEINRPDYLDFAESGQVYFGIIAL

B1: mouse monoclonal antibody TSK114 (antibody, V domains shown)
VH: QVQLVQSGPELKKPGETVKISCKASGYTFTHYGMNWVKQAPGEGLKWMGWINTNTGEPRYDEEFKGRFAFSLETSASTAYLQINNLRREDTATYFCARYDSRGFDCWGQGTTLTVSS
VL: QIVLTQSPAIMSASLGERVTMTCTASSSISYNYFHWYQQRPGSSPKLWIYSSSNLASGVPPRISGSGSGTSYSLTISSMEAEDAATYYCHQYERSPWTFGGGTKLEIKR
notes: Mouse monoclonal antibody (deposits KCTC 10514BP and KCTC 10515BP); also called Mouse antibody TSK114
In the case of B1, the “IC50 (concentration of the antibodies inhibiting cell death by 50%), WHEI 164 cells, MTT” value [1] is reported as 4.7 ng/mL, the Kd [2] is reported as 0.00579 nM and the koff [2] is reported as 2.39e-07 s⁻¹. The kon [2] was 41200 M⁻¹ s⁻¹ and the Kd [3] was 0.14 nM.

B2: humanized antibody YHB1411 (antibody, V domains shown)
VH: QVQLVQSGPELKKPGASVKVSCKASGYTFTHYGMNWVRQAPGKGLEWMGWINTNTGEPRYDEEFKGRVTMTRDTSASTAYMELSSLRSEDTAVYYCARYDSRGFDCWGQGTTVTVSS
VL: QIVMTQSPSSLSASVGERVTITCTASSSISYNYFHWYQQKPGSAPKLWIYSSSNLASGVPSRFSGSGSGTDFTFTISSLQPEDIATYYCHQYERSPWTFGGGTKVEIKR
notes: Human heavy and kappa light constant regions come from pHAB-HC and pHAB-KC
In the case of B2, the “IC50 (concentration of the antibodies inhibiting cell death by 50%), WHEI 164 cells, MTT” value [1] is reported as 6.7 ng/mL and the Kd [3] is reported as 0.2 nM.

B3: humanized antibody YHB1411-2 (antibody, V domains shown)
VH: QVQLVQSGPELKKPGASVKVSCKASGYTFTHYGMNWVRQAPGKGLEWMGWINTNTGEPRYDEEFKGRVTMTRDTSASTAYMELSSLRSEDTAVYYCARYDSRGFDCWGQGTTVTVSS
VL: DIVMTQSPSSLSASVGERVTITCTASSSISYNYFHWYQQKPGSAPKLWIYSSSNLASGVPSRFSGSGSGTDFTFTISSLQPEDIATYYCHQYERSPWTFGGGTKVEIKR
notes: Human heavy and kappa light constant regions come from pHAB-HC and pHAB-KC; also called YBB1411-2
B3 was tested, and the “IC50 (concentration of the antibodies inhibiting cell death by 50%), WHEI 164 cells, MTT” value [1] was 5.5 ng/mL, the “fold higher antigen binding affinity than mouse monoclonal antibody TSK114” value [4] was roughly 3 fold and the Kd [2] was 0.00171 nM. The koff [2] was 6.8e-08 s⁻¹, the kon [2] was 39600 M⁻¹ s⁻¹ and the Kd [3] was 0.2 nM.

B4: humanized antibody YHB1406 (antibody, V domains shown)
VH: QVQLVQSGPELKKPGASVKVSCKASGYTFTHYGMNWVRQAPGQGLEWMGWINTNTGEPRYDEEFKGRVTMTRDTSASTAYMELSSLRSEDTAVYYCARYDSRGFDCWGQGTTVTVSS
VL: QIVMTQSPSSLSASVGERVTITCTASSSISYNYFHWYQQKPGSAPKLWIYSSSNLASGVPSRFSGSGSGTDFTFTISSLQPEDIATYYCHQYERSPWTFGGGTKVEIKR
notes: Human heavy chain constant region comes from vector pHAB-HC and human kappa light chain constant region from pHAB-KC
With B4 the “IC50 (concentration of the antibodies inhibiting cell death by 50%), WHEI 164 cells, MTT” value [1] was 9.2 ng/mL and the Kd [3] was 0.22 nM.

B5: humanized antibody YHB1406-2 (antibody, V domains shown)
VH: QVQLVQSGPELKKPGASVKVSCKASGYTFTHYGMNWVRQAPGKGLEWMGWINTNTGEPRYDEEFKGRVTMTRDTSASTAYMELSSLRSEDTAVYYCARYDSRGFDCWGQGTTLTVSS
VL: DIVMTQSPSSLSASVGERVTITCTASSSISYNYFHWYQQKPGSAPKLWIYSSSNLASGVPSRFSGSGSGTDFTFTISSLQPEDIATYYCHQYERSPWTFGGGTKVEIKR
notes: as for B2
For B5, the “IC50 (concentration of the antibodies inhibiting cell death by 50%), WHEI 164 cells, MTT” value [1] was 6.5 ng/mL and the Kd [3] was 0.29 nM.
